# Measured values published in US20190023810A1 (MIT, published 2019).
# T1: CD20 (UniProt P11836 1-297, limits assumed)
# T1 sequence (looked up): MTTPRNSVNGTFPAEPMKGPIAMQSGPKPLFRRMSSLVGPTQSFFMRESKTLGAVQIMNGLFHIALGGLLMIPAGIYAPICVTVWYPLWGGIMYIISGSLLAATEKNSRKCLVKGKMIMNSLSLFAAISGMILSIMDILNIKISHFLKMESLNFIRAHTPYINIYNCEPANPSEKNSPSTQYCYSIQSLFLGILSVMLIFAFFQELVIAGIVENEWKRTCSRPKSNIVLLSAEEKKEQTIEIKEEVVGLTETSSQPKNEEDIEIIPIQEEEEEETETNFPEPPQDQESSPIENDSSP
# B1: rituximab/obinutuzumab bispecific antibody (bispecific antibody, human IgG1, kappa)
# light 1: QIVLSQSPAILSASPGEKVTMTCRASSSVSYIHWFQQKPGSSPKPWIYATSNLASGVPVRFSGSGSGTSYSLTISRVEAEDAATYYCQQWTSNPPTFGGGTKLEIKRTVAAPSVFIFPPSDEDLKSGTASVVCLLDNFYPREAKVQWKVDNALQSGNSQESVTEQDSKDSTYSLSSTLTLSKADYEKHKVYACEVTHQGLSSPVTKSFNRGEC
# heavy 1: not shown
# light 2: DIVMTQTPLSLPVTPGEPASISCRSSKSLLHSNGITYLYWYLQKPGQSPQLLIYQMSNLVSGVPDRFSGSGSGTDFTLKISRVEAEDVGVYYCAQNLELPYTFGGGTKVEIKRTVAAPSVFIFPPSDEKLKSGTASVVCLLKNFYPREAKVQWKVDNALQSGNSQESVTEQDSKDSTYSLSSALTLSKADYEKHKVYACEVTHQGLSSPVTKSFNRGEC
# heavy 2: not shown
# notes: Human IgG1/kappa bispecific with four different chains; Both arms are anti-CD20; also called Rxm/Ga101; Rxm/GA101
# B2: nivolumab/bevacizumab bispecific antibody (bispecific antibody, human IgG1, kappa)
# light 1: not shown
# heavy 1: not shown
# light 2: DIQMTQSPSSLSASVGDRVTITCSASQDISNYLNWYQQKPGKAPKVLIYFTSSLHSGVPSRFSGSGSGTDFTLTISSLQPEDFATYYCQQYSTVPWTFGQGTKVEIKRTVAAPSVFIFPPSDEKLKSGTASVVCLLKNFYPREAKVQWKVDNALQSGNSQESVTEQDSKDSTYSLSSALTLSKADYEKHKVYACEVTHQGLSSPVTKSFNRGEC
# heavy 2: not shown
# notes: Human IgG1/kappa bispecific with four different chains; also called BsAb
# B3: DL11 WT (antibody, V domains shown)
# VH: EVQLVESGGGLVQPGGSLRLSCAASGFTLSGDWIHWVRQAPGKGLEWLGEISAAGGYTDYADSVKGRFTISADTSKNTAYLQMNSLRAEDTAVYYCARESRVSFEAAMDYWGQGTLVTVSS
# VL: DIQMTQSPSSLSASVGDRVTITCRASQDLATDVAWYQQKPGKAPKLLIYSASFLYSGVPSRFSGSGSGTDFTLTISSLQPEDFATYYCQQSEPEPYTFGQGTKVEIKR
# notes: also called MEHD7945A
# B4: pertuzumab/DL11 bispecific antibody (bispecific antibody, human IgG1, kappa)
# light 1: DIQMTQSPSSLSASVGDRVTITCKASQDVSIGVAWYQQKPGKAPKLLIYSASYRYTGVPSRFSGSGSGTDFTLTISSLQPEDFATYYCQQYYIYPYTFGQGTKVEIKRTVAAPSVFIFPPSDEDLKSGTASVVCLLDNFYPREAKVQWKVDNALQSGNSQESVTEQDSKDSTYSLSSTLTLSKADYEKHKVYACEVTHQGLSSPVTKSFNRGEC
# heavy 1: not shown
# light 2: DIQMTQSPSSLSASVGDRVTITCRASQDLATDVAWYQQKPGKAPKLLIYSASFLYSGVPSRFSGSGSGTDFTLTISSLQPEDFATYYCQQSEPEPYTFGQGTKVEIKRTVAAPSVFIFPPSDEKLKSGTASVVCLLKNFYPREAKVQWKVDNALQSGNSQESVTEQDSKDSTYSLSSALTLSKADYEKHKVYACEVTHQGLSSPVTKSFNRGEC
# heavy 2: not shown
# notes: Human IgG1/kappa bispecific with four different chains; Expressed in Freestyle 293 cells and purified by protein A, gel filtration and the cation exchange main peak; also called P/D; P/D bi-specific
# B5: Pertuzumab WT (antibody, V domains shown)
# VH: EVQLVESGGGLVQPGGSLRLSCAASGFTFTDYTMDWVRQAPGKGLEWVADVNPNSGGSIYNQRFKGRFTLSVDRSKNTLYLQMNSLRAEDTAVYYCARNLGPSFYFDYWGQGTLVTVSS
# VL: DIQMTQSPSSLSASVGDRVTITCKASQDVSIGVAWYQQKPGKAPKLLIYSASYRYTGVPSRFSGSGSGTDFTLTISSLQPEDFATYYCQQYYIYPYTFGQGTKVEIKR
# How the values were obtained:
# CD20 = biological target: T1, CD20; experiment: CD20 binding titration; legend and text call it an ELISA, but the y axis 'Mean APC-A Intensity' fits the flow cytometry cell-based binding assay on Raji cells
# PD1 = PD1 (UniProt Q15116 25-167, limits assumed); experiment: sandwich (dual antigen) ELISA for PD1 and VEGF bound at once; the filing does not say which antigen is coated and which is detected
# PD1, sequence (Q15116 25-167 limits assumed): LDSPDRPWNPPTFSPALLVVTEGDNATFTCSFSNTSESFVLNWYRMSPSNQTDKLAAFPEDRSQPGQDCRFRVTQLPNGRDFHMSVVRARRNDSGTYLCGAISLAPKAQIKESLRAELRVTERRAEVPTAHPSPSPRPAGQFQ
# VEGF = VEGF (UniProt P15692-4 27-191, limits assumed); experiment: as above
# VEGF, sequence (P15692 other isoform, or with tags, fused parts or gaps limits assumed): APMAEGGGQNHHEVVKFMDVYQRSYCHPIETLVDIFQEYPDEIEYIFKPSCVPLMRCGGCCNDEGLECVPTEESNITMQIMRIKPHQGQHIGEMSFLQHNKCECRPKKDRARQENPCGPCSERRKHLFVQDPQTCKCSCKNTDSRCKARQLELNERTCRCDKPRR
# HER1 = biological target: T2, HER1 (UniProt P00533 25-645, limits assumed); experiment: single antigen ELISA, antigen coated; printed as Kd′, from a 4 parametric fit
# T2 construct: also called EGFR
# Description: (§1) Briefly 96-well plates were coated overnight at […] with appropriate antigen. The plates were washed and blocked with 1% blotto (Santa Cruz Biotechnologies). Serial dilution of antibodies were added to the plate and incubated for 2 hours at room temperature. Antigen bound IgG was detected using RbαHu IgG HRP Conjugated secondary antibody (Jackson ImmunoResearch) followed by TMB substrate (KPL) addition.
# HER3 [1] = biological target: T3, HER3 (UniProt P21860 20-643, limits assumed); experiment: as above
# Description: as §1
# HER3 [2] = biological target: T3, HER3; experiment: single antigen ELISA, HER3 coated, anti-human IgG HRP detection
# Description: as §1
binder,measurement,setting,value
B1,EC50 (read off the curve),CD20,~2 µg/mL
B2,EC50 (read off the curve),PD1,~0.2 µg/mL
same,EC50 (read off the curve),VEGF,~0.2 µg/mL
B3,Kd,HER1,0.0415 nM
B4,Kd,HER1,0.0898 nM
same,Kd,HER3 [1],0.0898 nM
B5,binding result,HER3 [2],"no binding (tested: 1 (axis 'Ab Conc.', no unit printed))"
